Substitutions are numbered along the chain they refer to.

One data set has as its target PD-1/PD-L1 complex (Homo sapiens, UniProt Q9NZQ7). To be noted: in vitro, reference 31; read-out: IC50, dissociation of PD-1/PD-L1 complex; cited from earlier work.
Data set [1] can be described thus: Subcutaneous immunization, ELISA for antigen-specific serum IgG (anti-drug antibodies). The class given is in vivo, BALB/c mice. To be noted: repeated subcutaneous immunization with adjuvant, Days 0, 21, 35; serum to Day 42. How it is done:
Adjuvant was purchased from TiterMax. […] All the procedures related to animal handling, care and treatment in the study were performed according to the guidelines set forth in an ACUP protocol for polyclonal antisera production in mice, approved by the Institutional Animal Care and Use Committee (IACUC) of Josman LLC.

Data set [2] deals with Human PD-1-Fc (R&D Systems cat #1086-PD-050), biotinylated (human) (UniProt Q15116). Briefly: SPR (Table 2).
The target is the same in data set [3]. Kind of data set: SPR, D-peptidic compound on natural L-PD-1 (Example 1).

Chain of Human PD-1-Fc (R&D Systems cat #1086-PD-050), biotinylated (human) (Q15116 25-167 limits assumed): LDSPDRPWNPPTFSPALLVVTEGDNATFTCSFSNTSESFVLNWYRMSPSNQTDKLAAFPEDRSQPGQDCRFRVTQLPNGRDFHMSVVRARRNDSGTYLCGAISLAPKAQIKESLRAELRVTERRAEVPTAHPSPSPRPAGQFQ
Chain of PD-1/PD-L1 complex (Q9NZQ7 19-238 limits assumed, one chain of several): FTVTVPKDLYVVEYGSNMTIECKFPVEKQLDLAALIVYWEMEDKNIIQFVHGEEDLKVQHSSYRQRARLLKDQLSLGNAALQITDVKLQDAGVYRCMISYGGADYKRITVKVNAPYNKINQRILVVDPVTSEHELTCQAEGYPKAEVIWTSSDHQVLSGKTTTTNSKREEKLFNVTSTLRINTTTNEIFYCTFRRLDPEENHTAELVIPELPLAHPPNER

On to `C[C@@H](O)[C@H](NC(=O)N[C@@H](CC(N)=O)c1nc([C@H](N)CO)no1)C(=O)O` [CA-170], for which, at PD-1/PD-L1 complex, the IC50 is 5000 to 10000 µM. Take nivolumab: the “anti-drug antibody response (antigen-specific serum IgG)” value in data set [1] is given as “strong serum IgG titers”.

B1: RFX-977296 (designed binder)
chain: TIDQWLLKNAKEDAIAELKKAGITSDLYFNWINVAGSVSSVNFHKNYILKAHA
modifications: D-protein
For the molecule B1, the Kd in data set [2] is 1.51 µM; in data set [3] it was 0.625 µM.

B2: 977978 (designed binder)
chain: B1 chain with S25C
modifications: not fully specified; D-protein
On to B2, for which the equilibrium dissociation constant (Kd) in data set [2] is 0.114 µM.
